Assay results published in patent publication US20190300613A1 (TUSK THERAPEUTICS, published 2019).
Numbering of substitutions follows the chain as printed. Each block holds one binder with its values, some of them ahead of it.

How the values were obtained:
[1] = molecular target: T1, recombinant human CD25 his tagged (human, UniProt P01589 22-240); assay: SPR, Biacore 2000: IgG1 captured on the chip, rhCD25-his tag as analyte
T1 construct: also called rhCD25; rhCD25-his tag; not shown: His tag
T1 sequence: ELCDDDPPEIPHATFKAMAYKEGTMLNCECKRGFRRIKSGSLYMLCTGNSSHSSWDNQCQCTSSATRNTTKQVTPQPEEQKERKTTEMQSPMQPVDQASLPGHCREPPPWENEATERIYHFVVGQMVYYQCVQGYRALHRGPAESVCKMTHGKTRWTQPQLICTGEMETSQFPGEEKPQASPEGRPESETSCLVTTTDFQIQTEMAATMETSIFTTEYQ

[2] = molecular target: T1, recombinant human CD25 his tagged; assay: as above; remark: listed apart in the source
[3] = molecular target: T1, recombinant human CD25 his tagged; assay: as above; remark: listed apart in the source
[4] = molecular target: T2, human CD25 expressed on cells (human, UniProt P01589 22-272); assay: flow cytometry on CD3/CD28 bead activated human Pan T cells, gated on CD4+ T cells
T2 construct: Endogenous CD25 on human cell lines and primary cells
T2 sequence: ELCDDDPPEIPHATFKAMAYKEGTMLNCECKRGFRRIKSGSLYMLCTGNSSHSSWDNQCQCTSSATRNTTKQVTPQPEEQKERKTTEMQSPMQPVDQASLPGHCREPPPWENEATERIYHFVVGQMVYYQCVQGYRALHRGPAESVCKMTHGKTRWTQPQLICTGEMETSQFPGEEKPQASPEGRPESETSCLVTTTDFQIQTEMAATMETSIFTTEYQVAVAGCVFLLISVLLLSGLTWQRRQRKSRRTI
Method: (§1) Binding to CD25 expressing activated human and Cynomolgus monkey PMBC was examined by staining test articles (anti-CD25 primary antibodies) with 20 μg/ml antibodies followed by semi-log dilution series (7-point) for 30 minutes on ice. This was followed by staining with a secondary antibody (rabbit anti-human Fcg F(ab′)2-(Jackson ImmunoResearch)) concentration of 5 μg/ml for 30 minutes on ice. All samples were stained in triplicates. To minimize cross-linking induced cell death mediated by binding of the secondary antibody, cell lines were examined in staining cohorts of 4 test articles at a time. Live lymphocytes were gated using FSC vs SSC parameters by flow cytometry during sample acquisition. Mean fluorescence intensity (MFI) of gated CD4⁺ and CD8⁺ T cell subsets were plotted on an XY chart, graphing MFI against the log of the concentration, and the data fit to a non-linear regression curve from which the EC50 was calculated.

[5] = molecular target: T1, recombinant human CD25 his tagged; assay: SPR, Biacore 2000, IgG captured by anti-human antibody on CM5, rhCD25-His as analyte, two state reaction fit
Method: Anti-human antibody was initially immobilised across all flow cells in analysis buffer (pH 7.4, 10 mM HEPES, 150 mM NaCl, 3 mM EDTA, 0.05% Tween 20) to an RU of between 12,000-14,000 over 10 minutes. […] Dissociation was performed in analysis buffer over 10 minutes. Regeneration steps between sample concentrations were performed in 10 mM Glycin pH1.7 for 10 minutes. A flow rate of 25 μl/min was maintained throughout the process. Kinetics data were fit using a global two state reaction conformational change analysis software provided by Biacore with reference subtraction.

[6] = molecular target: T3, human CD25 antigen, R&D Systems cat no. 223-2A/CF (~10% dimer) (human, UniProt P01589 22-213, limits assumed); assay: SPR, Biacore T200, antibody captured by anti-human Fab on CM5, CD25 as analyte, Two State Reaction fit; column printed as 'Binding strength'
T3 construct: Bought protein; also called R&D Systems (~10% dimer)
T3 sequence: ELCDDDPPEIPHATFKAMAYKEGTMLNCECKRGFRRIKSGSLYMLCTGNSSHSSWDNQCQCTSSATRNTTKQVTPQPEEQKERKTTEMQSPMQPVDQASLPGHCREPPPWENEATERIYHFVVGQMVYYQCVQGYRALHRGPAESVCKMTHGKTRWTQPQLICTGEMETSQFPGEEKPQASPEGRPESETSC
From the text: (§2) Binding of CD25 antibodies to human CD25 antigen was investigated by surface plasmon resonance using a BIACORE T200 instrument (GE Healthcare).
(§3) For calculation of KD and kinetic parameters Biacore provided fitting models were used to obtain optimal curve fitting results. The 1:1 Langmuir fit was used for P1AA5872 and the Two State Kinetic fitting for CD25 from Sino Biologicals and R&D Systems.

[7] = molecular target: T2, human CD25 expressed on cells; assay: flow cytometry on CD3/CD28 bead activated human Pan T cells, gated on CD8+ T cells
Method: as §1

[8] = molecular target: T4, inhouse produced monomeric human CD25 antigen (P1AA5872) (human, UniProt P01589 22-240, limits assumed); assay: SPR, Biacore T200, antibody captured by anti-human Fab on CM5, monomeric CD25 as analyte, 1:1 Langmuir fit; column printed as 'Binding strength'
T4 construct: also called Inhouse (0% dimer)
T4 sequence: T1 sequence
From the text: as §2, §3

[9] = molecular target: T5, human CD25 antigen, Sino Biologicals cat no. 10165-H08H (~20% dimer) (human, UniProt P01589 22-213); assay: SPR, Biacore T200, antibody captured by anti-human Fab on CM5, CD25 as analyte, Two State Reaction fit; column printed as 'Binding strength'; Sino Biological CD25 (~20% dimer), Two State Reaction fit
T5 construct: Bought protein; also called Sino biological (~20% dimer)
T5 sequence: T3 sequence
From the text: as §2, §3

[10] = molecular target: T1, recombinant human CD25 his tagged; assay: BLI, ForteBio Octet Red96, IgG on AHC sensors, rhCD25-His in solution, global 1:1 fit
Method: Sensors were equilibrated off-line in assay buffer for 10 min and then monitored on-line for 60 seconds for baseline establishment. […] Then, 1:3 serial dilutions (from 1 uM to 4 nM) of recombinant human CD25 HIS tagged was associated to the loaded IgG for 10 min. Afterwards they were transferred to assay buffer for 6.6 min for off-rate measurement. Kinetics data were fit using a global 1:1 binding model in the ForteBio Data Analysis Software 9.0 with reference subtraction.

[11] = molecular target: T1, recombinant human CD25 his tagged; assay: SPR, Biacore 2000: IgG1 captured on the chip, rhCD25-his tag as analyte; remark: listed apart in the source
[12] = molecular target: T1, recombinant human CD25 his tagged; assay: as above; remark: listed apart in the source

Kd [1]: 0.36 nM
B1: aCD25-a-646-m2 (antibody, IgG1, V domains shown)
VH: QVQLVESGGGLVQPGGSLRLSCAASGFTFPSYGMHWVRQAPGKGLEWVAVIWYDAINKYYADSVKGRFTISRDNSKNTLYLQMNSLRAEDTAVYYCARDLGYGDYAAHDYWGQGTLVTVSS
VL: DIQMTQSPSTLSASVGDRVTITCRASQSISSWLAWYQQKPGKAPKLLIYKASSLESGVPSRFSGSGSGTEFTLTISSLQPDDFATYYCQQHNTHPYTFGGGTKVEIK

Kd [2]: 1.43 nM
B2: aCD25-a-646-m1 (antibody, IgG1, V domains shown)
VH: B1 VH with Q1E, Q13K, P30A, I56S, N57T
VL: B1 VL

Kd [3]: 0.42 nM
B3: aCD25-a-646-m3 (antibody, IgG1, V domains shown)
VH: B1 VH with L11V, G16R, I56V
VL: B1 VL

EC50 (read off the curve) [4]: ~0.2 µg/mL
Kd [5]: 3.8 nM
Kd [6]: 15 nM
EC50 (read off the curve) [7]: ~0.2 µg/mL
Kd [8]: 77 nM
Kd [9]: 8.5 nM
Kd [10]: 3.65 nM
B4: aCD25-a-646 (antibody, V domains shown)
VH: B1 VH with L11V, G16R, P30S, A55G, I56S, Y59G
VL: B1 VL
notes: also called parental clone

Kd [11]: 0.56 nM
B5: aCD25-a-646-m4 (antibody, IgG1, V domains shown)
VH: B1 VH with L11V, G16R, I56S, N57T
VL: B1 VL

Kd [12]: 0.31 nM
B6: aCD25-a-646-m5 (antibody, IgG1, V domains shown)
VH: B1 VH with Q1E, V5L, I56L
VL: B1 VL
